Measurements published in article PMC5378391, “Maltose binding protein-fusion enhances the bioactivity of truncated forms of pig myostatin propeptide produced in E. coli” (PLoS ONE, 2017).

Assays:
Myostatin (MSTN) [1] = biological target: Myostatin (MSTN) (UniProt O14793)
[2] = biological target: Pro23-98 (MBP removed by factor Xa) (pig) (UniProt O18831); assay: non-reducing SDS-PAGE; samples boiled in SDS loading buffer without beta-mercaptoethanol (unreduced) or with it (reduced); 15% gel, Coomassie blue; can show only disulfide-linked dimers
Myostatin (MSTN) [3] = biological target: Myostatin (MSTN) (UniProt O14793); remark: listed apart in the source
Myostatin (MSTN) [4] = biological target: T1, Myostatin (MSTN) (UniProt O14793 267-375); assay: cell-based or functional assay
T1 sequence (looked up): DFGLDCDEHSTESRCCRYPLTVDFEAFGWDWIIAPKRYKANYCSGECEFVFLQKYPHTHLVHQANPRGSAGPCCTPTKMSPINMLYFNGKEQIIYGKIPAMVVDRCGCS

[5] = biological target: the molecule itself; assay: non-reducing SDS-PAGE; samples boiled in SDS loading buffer without beta-mercaptoethanol (unreduced) or with it (reduced); 15% gel, Coomassie blue; can show only disulfide-linked dimers

Question: “MBP-fused truncated pig MSTNpro containing residues 42-115 (from UniProt O18831 42-115) (domain or fragment)” was tested. Which IC50 to suppress 1 nM MSTN activity, pGL3-(CAGA)12-luciferase reporter assay in HEK293 cells (Myostatin (MSTN) [1]) did it give?
Answer: The IC50 to suppress 1 nM MSTN activity, pGL3-(CAGA)12-luciferase reporter assay in HEK293 cells was 17.7 nM.

Question: For “MBP-fused truncated pig MSTNpro containing residues 42-175 (from UniProt O18831 42-175) (domain or fragment)”, which IC50 to suppress 1 nM MSTN activity, pGL3-(CAGA)12-luciferase reporter assay in HEK293 cells (Myostatin (MSTN) [1]) is on record?
Answer: The IC50 to suppress 1 nM MSTN activity, pGL3-(CAGA)12-luciferase reporter assay in HEK293 cells was 2.7 nM.

Question: Which stoichiometry N [2] does the source give for “Pro23-98 (MBP removed by factor Xa) (from UniProt O18831 23-98) (domain or fragment)” here?
Answer: The stoichiometry N was 2.

Question: With “Full sequence MBP-fused pig MSTNpro (metalloproteinase-resistant mutant) (domain or fragment)” as the molecule, how does the IC50 to suppress 1 nM MSTN activity, pGL3-(CAGA)12-luciferase reporter assay in HEK293 cells (Myostatin (MSTN) [1]) read?
Answer: Its IC50 to suppress 1 nM MSTN activity, pGL3-(CAGA)12-luciferase reporter assay in HEK293 cells is 2.8 nM.

Question: Which IC50 to suppress 1 nM MSTN activity, pGL3-(CAGA)12-luciferase reporter assay in HEK293 cells (Myostatin (MSTN) [1]) does the source give for “MBP-fused truncated pig MSTNpro containing residues 42-218 (from UniProt O18831 42-218) (domain or fragment)” here?
Answer: The IC50 to suppress 1 nM MSTN activity, pGL3-(CAGA)12-luciferase reporter assay in HEK293 cells was 3.3 nM.

Question: Which IC50 to suppress 1 nM MSTN, (CAGA)12-luciferase reporter gene assay, after removal of MBP (Myostatin (MSTN) [3]) does the source give for “Pro42-175 (MBP removed by factor Xa) (from UniProt O18831 42-175) (domain or fragment)” here?
Answer: The IC50 to suppress 1 nM MSTN, (CAGA)12-luciferase reporter gene assay, after removal of MBP was 44.9 nM.

B1: MBP-fused truncated pig MSTNpro containing residues 42-98 (domain or fragment, UniProt O18831 42-98, looked up)
chain: CMWRQNTKSSRLEAIKIQILSKLRLETAPNISKDAIRQLLPKAPPLRELIDQYDVQR
Question: For B1, which “IC50 to suppress 1 nM MSTN activity, pGL3-(CAGA)12-luciferase reporter assay in HEK293 cells” value (Myostatin (MSTN) [4]) is on record?
Answer: Its value is 24.1 nM.

B2: Pro42-98 (MBP removed by factor Xa) (domain or fragment, pig, UniProt O18831 42-98, looked up)
chain: B1 chain
notes: Pig myostatin propeptide (MSTNpro), residues 42-98; Derived from m4; also called MBP-removed MSTNpro domain containing residues 42-98; source: E. coli K12TB1; MBP-Pro42-98 digested with factor Xa, soluble fraction of the digest / Superdex 75 fraction f16; not shown: MBP, N-terminal, cleaved
Question: B2 was tested. Which “stoichiometry N” value [5] did it give?
Answer: The value was 2.
